Test results reported in paper PMC6135694, “A high-throughput fluorescence polarization assay for discovering inhibitors targeting the DNA-binding domain of signal transducer and activator of transcription 3 (STAT3)”.

B1: unlabelled consensus DNA 12-mer (dsDNA)
DNA 1: ATTTCCCGTAAA
DNA 2: TTTACGGGAAAT
B2: unlabelled non-consensus DNA 12-mer (dsDNA)
DNA 1: GTACCATGGTAC
DNA 2: GTACCATGGTAC

Target: STAT3 127-688 (UniProt P40763 127-688)
Assay: competition (fluorescence polarization); competitor vs 20 nM Bodipy-DNA N1, 480 nM protein; 24 hr, 4 C; FP: 20 nM Bodipy-DNA, 480 nM STAT3 127-688, 25 mM Tris pH 8.5 (protein purification and DNA annealing buffer; full assay buffer not in material), NaCl < 200 uM
Details: protein: recombinant, blunt

Sequence of STAT3 127-688 (P40763 127-688): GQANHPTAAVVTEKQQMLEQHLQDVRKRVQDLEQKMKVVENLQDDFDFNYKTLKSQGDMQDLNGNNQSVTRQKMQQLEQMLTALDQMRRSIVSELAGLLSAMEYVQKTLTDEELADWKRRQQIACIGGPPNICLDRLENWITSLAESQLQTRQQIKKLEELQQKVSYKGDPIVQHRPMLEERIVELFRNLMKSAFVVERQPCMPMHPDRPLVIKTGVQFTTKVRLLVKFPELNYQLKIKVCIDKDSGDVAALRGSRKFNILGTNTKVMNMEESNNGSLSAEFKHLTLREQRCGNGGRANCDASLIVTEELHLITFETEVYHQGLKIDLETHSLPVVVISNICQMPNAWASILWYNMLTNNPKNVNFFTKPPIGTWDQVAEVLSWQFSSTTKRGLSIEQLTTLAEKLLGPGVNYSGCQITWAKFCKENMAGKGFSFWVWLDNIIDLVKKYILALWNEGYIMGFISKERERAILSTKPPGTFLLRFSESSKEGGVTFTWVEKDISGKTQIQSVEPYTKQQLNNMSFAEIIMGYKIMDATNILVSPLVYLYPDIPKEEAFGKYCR

Binder | IC50 [nM] | IC50 (self-complementary, 2 copies of strand) [nM]
B1 | 300 ± 200 | –
B2 | – | 2300 ± 660
